Test [1] has as its system post-traumatic OA model (DMM) in male C57BL/6 mice. Nature of the test: DMM OA model: micro-computed tomography of tibia subchondral bone. Conditions: eight weeks post-surgery, vs saline-treated DMM mice. Format: in vivo, mouse. The protocol:
(§1) Destabilization of the medial meniscus (DMM) surgery was performed on the right knee joint of mice (Glasson S S, et al. Osteoarthritis and cartilage. 2007; 15(9):1061-9). Briefly, a 3 mm longitudinal incision over the distal patella to proximal tibial plateau was made. The joint capsule immediately medial to the patellar tendon was incised with a #15 blade and the joint capsule opened with micro-iris scissors. Blunt dissection of the fat pad over the intercondylar area was then performed to expose the intercondylar region, providing visualization of the meniscotibial ligament of the medial meniscus. Mild hemorrhage from the fat pad upon blunt dissection was controlled by pressure from absorption spears. Sectioning of medial meniscotibial ligament with micro-surgical knife, with the blade directed proximo-laterally, gave destabilization of the medial meniscus (DMM). Sham surgery was performed with the ligament visualized but not transected.
Micro-computed tomography. Following behavioral tests, mice were sacrificed and hindlimbs were dissected immediately and fixed in 4% paraformaldehyde. The structural properties of subchondral bone were evaluated using a 3D reconstruction of μCT imaging system (Brüker SkyScan 1173; Brüker microCT, Kontich, Belgium). Samples were scanned in saline with the following settings: 60 kV, […] beam intensity, 0.5 mm aluminum filter, 0.7° rotation step, 4-frame averaging, 1090 ms integration time, 1024×1024 pixel matrix, and a 10 μm isotropic voxel dimension. After scanning, noise was removed from the images by eliminating disconnected objects smaller than 4 pixels in size. Morphometric analysis was performed on 50 slices extending proximally, beginning with the first slice in which the tibia condyles had fully merged. The subchondral bone was segmented from the cortical shell manually on key slices using a contouring tool, and the contours were morphed automatically to segment the trabecular bone on all slices. The morphometry was reconstructed and analyzed. A grayscale value of 95 in a set of 8-bit slices was set as the threshold and was applied to the specimens after comparing grayscale and binarized images in both groups. After thresholding, the BV/TV (%), Tb.Th (mm), Tb.Sp (mm), and Tb.N (mm^−1) were quantified.

Test [2] shares this test system. Nature of the test: DMM OA model: synovitis score. Format: in vivo, mouse. Conditions: vs saline. The protocol:
as §1
The degree of synovitis is determined considering synovial membrane thickening and synovial hyperplasia and scored on a scale of 0-3 (0, no synovitis; 1, mild synovitis; 2, moderate synovitis; and 3, severe synovitis) (Krenn V, et al. Pathology, research and practice. 2002; 198(5):317-25; and Huesa C, et al. Annals of the rheumatic diseases. 2016; 75(11):1989-97. Blinded histomorphometric assessment was performed.

One molecule from patent US20240076371A1, “COMPOSITIONS AND METHODS FOR TREATING OSTEOARTHRITIS, RHEUMATOID ARTHRITIS, AND JOINT AND TENDON DISORDERS” (BOARD OF REGENTS, THE UNIVERSITY OF TEXAS SYSTEM, priority 2021, published 2024) can be followed below.

B1: M1 antibody: antibody with variable heavy chain SEQ ID NO: 58 and variable light chain SEQ ID NO: 60; inhibits or blocks opening of Cx43 hemichannel (antibody, V domains shown)
VH: EVQLQQPGAELVKPGASVKLSCKASGYTFTSYYMYWVKQRPGQGLEWIGGINPSNGGTNFNEKFKNKATLTVDKSSSTAYMQLSSLTSEDSAVYYCTREGNPYYTMNYWGQGTSVTVSS
VL: DIVMTQSPSSLSVSAGEKVTMSCKSSQSLLNSGNQKTYLAWYQQKPGQPPKLLIYGASTRESGVPDRFTGSGSGTDFTLTISSVQAEDLAVYYCQNDHSYPFTFGSGTKLEIK
On to B1, for which, in test [1], the “bone mineral density (BMD) at the tibia subchondral bone” value is “significantly decreased”, the “bone volume fraction (BV/TV) at the tibia subchondral bone” value was “significantly decreased”, the “trabecular separation (Tb.Sp) at the tibia subchondral bone” value was “elevated” and the “trabecular thickness (Tb.Th) at the tibia subchondral bone” value is recorded as “significantly decreased”. Also, the “degree of synovitis (synovitis score)” value in test [2] (DMM mice, i.p. twice at 30 minutes and four weeks post-surgery, 8 weeks after DMM) is “marked reduction”. For the same molecule, in test [2] (delayed treatment: i.p. at 10, 25 and 40 days after DMM surgery, eight weeks after DMM), the “degree of synovitis (synovitis score)” value was “significant reduction”.
